Measured values as given in US9663815B2, “Cytosolically-active peroxidases as reporters for microscopy” (Massachusetts Institute of Technology, priority 2011, dated 2017).

B1: wt APX: pea cytosolic ascorbate peroxidase (Pisum sativum), wild type, about 28 kD, dimeric (protein, listed as Pisum sativum)
chain: MGKSYPTVSPDYQKAIEKAKRKLRGFIAEKKCAPLILRLAWHSAGTFDSKTKTGGPFGTIKHQAELAHGANNGLDIAVRLLEPIKEQFPIVSYADFYQLAGVVAVEITGGPEVPFHPGREDKPEPPPEGRLPDATKGSDHLRDVFGKAMGLSDQDIVALSGGHTIGAAHKERSGFEGPWTSNPLIFDNSYFTELLTGEKDGLLQLPSDKALLTDSVFRPLVEKYAADEDVFFADYAEAHLKLSELGFAEA
B2: mAPX: double mutant K14D/E112K of pea APX (SEQ ID NO:1), monomeric (protein, listed as Pisum sativum)
chain: MGKSYPTVSPDYQDAIEKAKRKLRGFIAEKKCAPLILRLAWHSAGTFDSKTKTGGPFGTIKHQAELAHGANNGLDIAVRLLEPIKEQFPIVSYADFYQLAGVVAVEITGGPKVPFHPGREDKPEPPPEGRLPDATKGSDHLRDVFGKAMGLSDQDIVALSGGHTIGAAHKERSGFEGPWTSNPLIFDNSYFTELLTGEKDGLLQLPSDKALLTDSVFRPLVEKYAADEDVFFADYAEAHLKLSELGFAEA

Tests used:
[1] = Guaiacol activity assay (Michaelis-Menten kinetics); type: biochemical; settings: guaiacol as substrate, purified enzyme
Procedure: Data points represent the mean±standard deviation of 2-3 independent measurements. Initial rates are shown as a function of guaiacol concentration. H2O2 concentration was 90 μM, and enzyme concentration was 20 nM in all trials. Oxidation to tetraguaiacol was monitored by absorbance at 470 nm (ε470=22×10^3 M^−1 cm^−1)^2.
High activity toward guaiacol generally correlated well with robust polymerization of DAB in vitro. Guaiacol assays were performed on a Nanodrop 2000c UV-vis spectrophotometer (Thermo Scientific) using its cuvette reader. HRP (Sigma) was prepared as a 10 μM stock in PBS, flash frozen and stored at −80° C., and thawed immediately before use. Guaiacol peroxidase activity was measured according to the protocol of Lad et. al.^35 Oxidation to tetraguaiacol was monitored by absorbance at 470 nm (ε470=22×10^3 M^−1 cm^−1). Kcat and KM were calculated by nonlinear regression fitting to the Michaelis-Menten equation using OriginPro (OriginLab Corporation). All values are reported as the mean±standard deviation for 2-3 independent Michaelis-Menten fittings, with each fitting using at least 5 values of substrate concentration ranging between 0.25 and 30 mM.
In order to improve the performance of mAPX in mammalian cells, monomeric APX was engineered with improved activity toward DAB in the hope that faster kinetics could compensate for diminished heme binding. The substrate binding site of APX was compared to that of HRP, which has faster kinetics and broader aromatic substrate tolerance (Henriksen, et. al., Journal of Biological Chemistry 274, 35005-35011 (1999)). In order to make APX more HRP-like, seven mutants of APX were designed that incorporated mostly aromatic residues into the active site (FIG. 5a). A colorimetric assay was employed using guaiacol, a prototypical aromatic peroxidase substrate, to determine Michaelis-Menten parameters (Kumar, et. al., Journal of Cell Science 108, 3725-3734 (1995); Henriksen, et. al., Journal of Biological Chemistry 274, 35005-35011 (1999)) (FIG. 5b and FIG. 10). […]

HEK293T cells = assay: Amplex UltraRed labeling (resorufin fluorescence) of cells expressing peroxidase; type: cell-based
Procedure: The expression and activity of wild-type (wt) APX was tested using immunostaining and Amplex UltraRed, a fluorogenic peroxidase substrate, in three cellular compartments: cytosol, mitochondrial matrix, and endoplasmic reticulum (ER). APX was differentially expressed in each compartment using at least the constructs described in Table 3. For comparison, HRP was tested in the same locations. Activity was monitored through visualization of resorufin, the fluorescent product of Amplex UltraRed oxidation by HRP or APX (scheme in FIG. 7). […] When live cells were imaged immediately after Amplex UltraRed labeling, resorufin fluorescence was seen throughout the entire cell. After fixation, however, the majority of the resorufin diffused out of the cells, and resorufin fluorescence remained only in the compartment in which APX was expressed. (Note that Amplex UltraRed, a proprietary derivative of Amplex Red, was used rather than Amplex Red in this example).
Further, Amplex UltraRed labeling and immunostaining of wtAPX, APX^W41F, mAPX, and APEX was performed on transfected HEK293T cells. Amplex UltraRed labeling was performed for 6 minutes. All APX variants were expressed with a C-terminal nuclear export signal (NES, see Table 3). […]

| Molecule | activity in vitro (guaiacol) [1] | peroxidase activity toward Amplex UltraRed (resorufin) (HEK293T cells; expressed in cytosol, mitochondrial matrix and endoplasmic reticulum (ER)) | activity toward Amplex UltraRed (HEK293T cells; cytosol (NES), HEK293T, labeling 6 minutes) |
| --- | --- | --- | --- |
| B1 | equally active | active in all contexts |  |
| B2 | equally active |  | less active than wt APX |
